Laboratory results reported in PMC9351184, “Survey of the binding preferences of RNA-binding proteins to RNA editing events”.

Legend:
[1] = biological target: T1, ILF3 dsRBD (Homo sapiens, UniProt Q12906 398-590); assay: EMSA; 1 uM labelled RNA, 3 uM protein, 10 ul, on ice 45 min; 6% PAGE in 0.5x TBE (gel pre-run at 4 C); binding buffer, salt and pH not stated (proteins dialyzed in 25 mM Tris-HCl pH 8.0, 150 mM NaCl; final elution from cation exchange/heparin up to 1 M NaCl, then SEC); conditions: protein: recombinant; tags: N-terminal GST (pGood6p), removed with TEV; label: 5' DY781
T1 sequence: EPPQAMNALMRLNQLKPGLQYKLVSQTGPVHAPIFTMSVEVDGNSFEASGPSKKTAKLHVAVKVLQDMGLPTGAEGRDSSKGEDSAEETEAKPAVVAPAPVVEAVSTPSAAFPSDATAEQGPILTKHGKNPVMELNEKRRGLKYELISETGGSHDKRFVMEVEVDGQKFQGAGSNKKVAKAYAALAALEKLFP

[2] = biological target: hnRNPC dsRBD (Homo sapiens, UniProt P07910 16-57); assay: as above; conditions: protein: recombinant; tags: 10xHis (pSUMOH10), removed with TEV; label: 5' DY781
Sequence of hnRNPC dsRBD (P07910 16-57): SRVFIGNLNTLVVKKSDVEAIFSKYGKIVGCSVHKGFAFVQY

Binder: AGUGGCUUAUGCCUGUGAUCCCAACAC (ssRNA, A-to-I editing site represented by G as printed (A/G); inosine not stated) [edited RNA]
- binding result [1]: binds
- binding result [2]: binds
